Patent US20190367631A1 (Regeneron, published 2019)

T1: human MSR1 extracellular domain expressed with a N-terminal nonahistidine tag (human, UniProt P21757 77-451)
T1 construct: extracellular domain; also called His9-hMSR1; His-hMSR1
T1 sequence: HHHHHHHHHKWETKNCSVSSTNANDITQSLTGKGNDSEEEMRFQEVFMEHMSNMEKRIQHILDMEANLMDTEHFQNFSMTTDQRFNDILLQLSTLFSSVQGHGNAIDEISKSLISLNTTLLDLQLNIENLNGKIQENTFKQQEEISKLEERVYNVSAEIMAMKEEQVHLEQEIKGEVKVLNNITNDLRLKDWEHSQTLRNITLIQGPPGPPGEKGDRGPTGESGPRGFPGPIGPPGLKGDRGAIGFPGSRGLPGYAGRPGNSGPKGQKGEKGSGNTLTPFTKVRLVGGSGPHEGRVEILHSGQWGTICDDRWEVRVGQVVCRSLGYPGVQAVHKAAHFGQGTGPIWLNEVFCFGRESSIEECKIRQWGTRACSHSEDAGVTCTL

T2: monkey MSR1 extracellular domain expressed with a N-terminal hexahistidine-myc-myc tag (HMM-mfMSR1) (monkey (Macaca fascicularis))
T2 chain: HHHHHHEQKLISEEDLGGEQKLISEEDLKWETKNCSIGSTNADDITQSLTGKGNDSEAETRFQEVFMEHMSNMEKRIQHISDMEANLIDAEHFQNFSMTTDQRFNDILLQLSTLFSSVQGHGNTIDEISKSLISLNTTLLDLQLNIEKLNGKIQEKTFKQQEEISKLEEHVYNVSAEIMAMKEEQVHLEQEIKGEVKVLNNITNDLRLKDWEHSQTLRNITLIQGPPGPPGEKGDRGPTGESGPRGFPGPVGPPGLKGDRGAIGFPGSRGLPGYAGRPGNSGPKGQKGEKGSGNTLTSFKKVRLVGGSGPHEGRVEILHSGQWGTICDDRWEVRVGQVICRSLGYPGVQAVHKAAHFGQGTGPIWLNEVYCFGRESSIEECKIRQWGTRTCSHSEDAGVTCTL

T3: human MSR1 extracellular domain expressed with a N-terminal nonahistidine tag (His9-hMSR1); R&D Systems, Cat … (human, UniProt P21757 77-451)
T3 construct: extracellular domain; also called His-hMSR1; 9xHis-hMSR1; not shown: N-terminal nonahistidine tag
T3 sequence (looked up): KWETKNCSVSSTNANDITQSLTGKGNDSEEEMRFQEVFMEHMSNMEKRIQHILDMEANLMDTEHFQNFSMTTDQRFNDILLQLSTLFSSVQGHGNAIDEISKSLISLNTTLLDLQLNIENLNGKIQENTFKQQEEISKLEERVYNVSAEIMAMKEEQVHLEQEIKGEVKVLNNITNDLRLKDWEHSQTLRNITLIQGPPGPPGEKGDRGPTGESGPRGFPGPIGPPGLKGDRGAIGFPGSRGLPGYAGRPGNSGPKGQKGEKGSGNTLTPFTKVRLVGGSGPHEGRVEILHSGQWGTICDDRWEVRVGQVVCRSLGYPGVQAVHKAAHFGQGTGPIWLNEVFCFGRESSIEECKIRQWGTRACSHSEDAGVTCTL

T4: mouse MSR1 extracellular domain expressed with a N-terminal nonahistidine tag (His9-mMSR1); R&D Systems, Cat … (mouse, UniProt P30204 79-458)
T4 construct: extracellular domain; not shown: N-terminal nonahistidine tag
T4 sequence (looked up): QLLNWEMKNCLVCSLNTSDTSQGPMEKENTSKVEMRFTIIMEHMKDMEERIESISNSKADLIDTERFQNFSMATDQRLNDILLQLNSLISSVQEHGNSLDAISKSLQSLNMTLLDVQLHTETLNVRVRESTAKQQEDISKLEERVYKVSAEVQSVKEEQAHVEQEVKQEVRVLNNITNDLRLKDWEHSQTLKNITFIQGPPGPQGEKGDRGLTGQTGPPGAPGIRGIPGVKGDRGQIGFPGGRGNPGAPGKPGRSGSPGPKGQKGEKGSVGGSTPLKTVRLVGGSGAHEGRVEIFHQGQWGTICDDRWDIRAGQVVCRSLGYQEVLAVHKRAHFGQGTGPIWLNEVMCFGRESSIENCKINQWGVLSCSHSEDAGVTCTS


Tests used:
[1] = target: T1, human MSR1 extracellular domain …; test: competition ELISA, plate-coated His9-hMSR1; 100 nM antibody, competitor ligand Ac-LDL
Method: (§1) Buffer alone was also added to wells on each coat. […] This assay was conducted in four different assay runs.
(§2) Data analysis was performed using a sigmoidal dose-response model within Prism™ software (GraphPad).

[2] = target: T1, human MSR1 extracellular domain …; test: competition ELISA, plate-coated His9-hMSR1; 1 µM antibody, competitor ligand 10 nM Ox-LDL
Method: as §1, §2

[3] = target: T1, human MSR1 extracellular domain …; test: competition ELISA, plate-coated His9-hMSR1; 300 nM antibody, competitor ligand biot-AGE-BSA
Method: as §1, §2

[4] = target: T2, monkey MSR1 extracellular domain …; test: SPR Biacore, 37 C, antibody captured
Method: (§3) Binding affinities and kinetic constants of human anti-MSR1 antibodies for different MSR1 reagents were determined by real-time surface plasmon resonance (Biacore 4000). All binding studies were performed in 10 mM HEPES, 150 mM NaCl, 3 mM EDTA, and 0.05% v/v Surfactant Tween-20, pH 7.4 (HBS-ET) running buffer at 25° C. and 37° C.
(§4) The association rate (kₐ) and dissociation rate (kd) were determined by fitting the real-time binding sensorgrams to a 1:1 binding model with mass transport limitation using Scrubber 2.0c curve-fitting software. Binding dissociation equilibrium constant (KD) and dissociative half-life (t½) were calculated from the kinetic rates as:

[5] = target: T3, human MSR1 extracellular domain …; test: SPR Biacore, 37 C, antibody captured
Method: as §3, §4

[6] = target: T2, monkey MSR1 extracellular domain …; test: SPR Biacore, 25 C, antibody captured;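 also: rates from 1:1 fit with mass transport limitation of real-time sensorgrams, HEPES-buffered saline with EDTA and Tween-20 at pH 7.4, KD and t½ derived from the kinetic rates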
Method: as §3, §4

[7] = target: T3, human MSR1 extracellular domain …; test: SPR Biacore, 25 C, antibody captured;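 also: rates from 1:1 fit with mass transport limitation of real-time sensorgrams, HEPES-buffered saline with EDTA and Tween-20 at pH 7.4, KD and t½ derived from the kinetic rates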
Method: as §3, §4

[8] = target: T4, mouse MSR1 extracellular domain …; test: BLI Octet, 25 C, antibody captured

% Blocking [1] [%] | % Blocking [2] [%] | % Blocking [3] [%] | Binder | other results
-51 | -21 | -1 | H1H27749P-N297Q (antibody, V domains shown, Human IgG1 Fc with N297Q) VH: QVQLQESGPGLVKPSETLSLTCTVSDGSISSYYWSWIRQPPGRGLEWIGFIYYSGSTSYNPSLKSRVTISVDTSMSQFSLKLRSVTAADTAVYYCARGSPFDYWGPGTLVTVSS VL: EIVLTQSPGTLSLSPGERATLSCRASQSVSSSYLAWYQQRPGQAPSLLISGASRRATGIPDRFSGSGSGTDFTLTIRRLEPEDFAMYYCQQYGSSPPTFGGGTKVEIKR | –
– | 2 | 1 | H1H27773P2-N297Q (antibody, human IgG1, V domains shown, Human IgG1 Fc with N297Q; also called H1H27773P-N297Q) VH: EVQLVESGGGLVQPGGSLRLSCAASGFTFSSYAMNWVRQAPGKGLEWVSAISGSGDSTYYADSVKGRFTISRDNSRTTLSLQLNSLRAEDTAVYYCAKDRLLWFGELGSPFHYWGQGTLVTVSS VL: not shown | –
-47 | -41 | -9 | H1H27739P-N297Q (antibody, V domains shown, Human IgG1 Fc with N297Q) VH: EVQLVESGGGLVQPGGSLRLSCTASGFTFSSYAMSWVRQAPGKGLEWVSAISGTGSSTYFTDSVKGRFAISRDNSKNTLYLQMNSLRAEDTAVYYCAKDGEWLSTVTLFDYWGQGTLVTVSS VL: EIVMTQSPATLSVSPGERATLSCRASQSVSSNLAWYQQKPGQAPRLLIYGASTRATGIPARFSGSGSGTDFTLTISSLQSEDFALYYCQQYFIWPPHPTFGPGTKVDIKR | –
8 | 36 | 15 | H1H27729P-N297Q (antibody, V domains shown, Human IgG1 Fc with N297Q) VH: QVQLVESGGGLVKPGGSLRLSCAASGFIFSDYYMSWIRQAPGKGLEWVSYISSSGTTIYGDSVKGRFTMSRDNAKNSLYLQMNSLRAEDTAVYYCARNYALFDYWGQGTLVTVSS VL: DIQMTQSPSSLSASVGDRVTITCQASQDISKYLNWYQQKPGKAPKLLIYYTSNLETGVPSRFSGSGSGTDFTFTISSLQPEDIATYYCHQSDYLPFTFGPGTKVDIKR | –
-61 | -60 | -9 | H1H27732P-N297Q (antibody, V domains shown, Human IgG1 Fc with N297Q) VH: QLQLQESGPGLVKPSETLSLTCTVSGGSISSSTYYWGWIRQPPGKGLEWIGSFYYSGSTYYNPSLKSRVTISVGTSKNQFSLKLSSVTAADTAVYFCARGGLLGRPFVIWGQGTMVTVSS VL: DIQMTQSPSSLSASVGDRVTITCRASQGIRNDLGWYQQKPGKAPKRLIYAASSLQSGVPSRFSGSGSGTEFTLTISSLQPEDFATYYCLQHNSYPLTFGGGTKVEIKR | –
52 | 54 | 27 | H1H27766P2-N297Q (antibody, V domains shown, Human IgG1 Fc with N297Q; also called H1H27766P-N297Q) VH: EVQLVESGGGLVQPGGSLRLSCAASGFTFSSFAMSWVRQAPGKELEWVSSISGRGGSTYYADSVRGRFTISRDNSKITLYLQMNSLRAEDTAVYYCAKDIVFRYTSSAYWYFDLWGRGTLVTVSS VL: not shown | –
– | – | – | H1H27766P-N297Q (antibody, V domains shown, Human IgG1 Fc with N297Q; tied by the numerical identifier; also called H1H27766P2-N297Q; H1H27766P2) VH: EVQLVESGGGLVQPGGSLRLSCAASGFTFSSFAMSWVRQAPGKELEWVSSISGRGGSTYYADSVRGRFTISRDNSKITLYLQMNSLRAEDTAVYYCAKDIVFRYTSSAYWYFDLWGRGTLVTVSS VL: not shown | Kd [4]: 1.72 nM; koff [4]: 0.000589 s⁻¹; kon [4]: 343000 M⁻¹ s⁻¹; t½ [4]: 0.333 h; Kd [5]: 0.227 nM; koff [5]: 7.72e-05 s⁻¹; kon [5]: 340000 M⁻¹ s⁻¹; t½ [5]: 2.5 h; Kd [6]: 0.506 nM; koff [6]: 7.94e-05 s⁻¹; kon [6]: 157000 M⁻¹ s⁻¹; t½ [6]: 2.42 h; Kd [7]: 0.0796 nM; koff [7]: 1.86e-05 s⁻¹; kon [7]: 234000 M⁻¹ s⁻¹; t½ [7]: 10.3 h; binding result [8]: no binding (tested: 50 nM)
-41 | -1 | 4 | H1H27731P-N297Q (antibody, V domains shown, Human IgG1 Fc with N297Q) VH: QLQLQESGPGLVKPSETLSLTCTVSGGSISRISYYWGWIRQPPGKGLEWIGSIYDSGSTYYNPSLKSRVTISIDTSKNQFSLKLSSVTAADTAVYYCVRYSSSSAFAFDYWGQGTLVTVSS VL: DIQMTQSPSSVSASVGDRVTITCRASQGISSWLAWYQQKPGKAPKLLIYAASSLQSGVPSRFSGSGSGTDFTLTISSLQPEDFATYYCQQANSFPFTFGPGTKVDIKR | –
-44 | -31 | -2 | H1H27747P-N297Q (antibody, V domains shown, Human IgG1 Fc with N297Q) VH: QVQLVESGGAVVQPGRSLRLSCAASGFTFSYYGMHWVRQAPGKGLEWVAVISYDGSKKYYADSVKGRFTISRDNSKNTLYLQMNSLRAEDTAVYYCAKDLTVDFYYGMDVWGQGTTVTVSS VL: DIQMTQSPSSVSASVGDRVTITCRASQGISSWLAWYQQKPGKAPKLLIYATSSLQSGAPSRFSGSGSGTDFTLTISSLQPEDFATYFCQQANSFPYTFGQGTKLEIKR | –
-42 | -44 | -9 | H1H27754P-N297Q (antibody, V domains shown, Human IgG1 Fc with N297Q) VH: EVQLVESGGGLVQPGGSLRLSCAASGFTFRTYAMTWVRQAPGKGLDWVSAITGDGGNTYYADSVKGRFTISRDNSKNTLYLQMNSLRAEDTAIYYCAKDQRFSFALYYFDYWGQGTLVTVSS VL: DIQMTQSPSSVSASVGDRVTITCRASQGISSWLAWYQQKPGNAPKLLIYAAFSLQSGVPSRFSGSGSGTDFTLTISSLQPEDFATYYCQQANNFPWTFGQGTKVEIKR | –
-31 | 3 | -3 | H1H27736P-N297Q (antibody, V domains shown, Human IgG1 Fc with N297Q) VH: EVQLVESGGGLVQPGGSLRLSCAASGFTFSSYAMSWVRQAPGKGLEWVSSISGSGDSTFYTDSVKGRFTISRDISKNTLYLQMNSLRAEDTAVYYCAKDRLLWFGDLISPFHYWGQGTLVTVSS VL: EIVLTQSPGTLSLSPGERATLSCRASQSVSNIYLAWYQQKPAQAPRLLIYGASSRATGIPDRFSVSGSGTDFTLTISRLEPEDFAVYYCQQYGSSPRTFGQGTKVEIKR | –
-51 | -31 | -11 | H1H27751P-N297Q (antibody, V domains shown, Human IgG1 Fc with N297Q) VH: EVQLVESGGGLVQPGGSLRLSCAASGFTFSNYAMHWVRQAPGKGLEYVSAISSNGGSTYYADSVKGRITISRDNSKNTLYLQMGSLRAEDMAVYYCARGRPYYYYFGMDVWGQGTTVTVSS VL: not shown | –
-38 | -15 | -4 | H1H27734P-N297Q (antibody, V domains shown, Human IgG1 Fc with N297Q) VH: EVQLVESRGGLVQPGGSLRLSCAASGFTFSSYAMSWVRQAPGKGLEWVSAISGSGGSTFYADSVKGRFTISRDNSKNTVYLQMNSLRAEDTAVYYCAKALVLRFLEWLGDYWGQGTLVTVSS VL: DIQMTQSPSTLSASVGDRVTITCRASQSISSWLAWFQQKPGKAPKLLIYKASSLESGVPSRFSGSGSGTEFTLTISSLQPDDFATYYCQQYKSYWTFGQGTKVEIKR | –
